{
  "source": "paper PMC6825194",
  "key": {"[1]": {"target": "CCM1-K8", "experiment": "ITC; GST-tagged fragments from PTB domains and HIS-tagged NPXY motifs, purified; Table 5 heads CCM1-K8 and CCM1-K2 as 'Ligand'; conditions not stated (as in ref. 20)"}, "[2]": {"target": "CCM1-K2", "experiment": "ITC; GST-tagged fragments from PTB domains and HIS-tagged NPXY motifs, purified; Table 5 heads CCM1-K8 and CCM1-K2 as 'Ligand'; conditions not stated (as in ref. 20)"}, "[3]": {"target": "CCM1-K8", "experiment": "BLI; GST-tagged fragments from PTB domains and HIS-tagged NPXY motifs, purified; Table 5 heads CCM1-K8 as 'Ligand'; who was immobilised and the conditions are not stated (as in ref. 20)"}},
  "data": [
    {"substance": "CCM2-EX6 (from UniProt Q9BSQ5 1-444) (domain or fragment)", "values": [
      {"measurement": "Kd", "setting": "[1]", "value": 1.99, "unit": "µM"},
      {"measurement": "Kd", "setting": "[2]", "value": 6.45, "unit": "µM"},
      {"measurement": "Kd", "setting": "[3]", "value": 4.06, "unit": "µM"}
    ]}
  ]
}
